Measurements from patent publication US20170044236A1 (GENERAL HOSPITAL, published 2017).
Substitutions are numbered along the chain they refer to. Values belong to the binder of their own block, whether it stands above or below them.

How the values were obtained:
[1] = biological target: T1, wild-type integrin αVβ3 on cells (K562-αVβ3, M21, HEK293T) (human, UniProt P06756 31-1048; P05106 27-788); experiment: flow cytometry, fluoresceinated fluid-phase FN10 on K562-αVβ3 cells
T1 construct: also called WT αVβ3; cellular αVβ3
T1 chain 1: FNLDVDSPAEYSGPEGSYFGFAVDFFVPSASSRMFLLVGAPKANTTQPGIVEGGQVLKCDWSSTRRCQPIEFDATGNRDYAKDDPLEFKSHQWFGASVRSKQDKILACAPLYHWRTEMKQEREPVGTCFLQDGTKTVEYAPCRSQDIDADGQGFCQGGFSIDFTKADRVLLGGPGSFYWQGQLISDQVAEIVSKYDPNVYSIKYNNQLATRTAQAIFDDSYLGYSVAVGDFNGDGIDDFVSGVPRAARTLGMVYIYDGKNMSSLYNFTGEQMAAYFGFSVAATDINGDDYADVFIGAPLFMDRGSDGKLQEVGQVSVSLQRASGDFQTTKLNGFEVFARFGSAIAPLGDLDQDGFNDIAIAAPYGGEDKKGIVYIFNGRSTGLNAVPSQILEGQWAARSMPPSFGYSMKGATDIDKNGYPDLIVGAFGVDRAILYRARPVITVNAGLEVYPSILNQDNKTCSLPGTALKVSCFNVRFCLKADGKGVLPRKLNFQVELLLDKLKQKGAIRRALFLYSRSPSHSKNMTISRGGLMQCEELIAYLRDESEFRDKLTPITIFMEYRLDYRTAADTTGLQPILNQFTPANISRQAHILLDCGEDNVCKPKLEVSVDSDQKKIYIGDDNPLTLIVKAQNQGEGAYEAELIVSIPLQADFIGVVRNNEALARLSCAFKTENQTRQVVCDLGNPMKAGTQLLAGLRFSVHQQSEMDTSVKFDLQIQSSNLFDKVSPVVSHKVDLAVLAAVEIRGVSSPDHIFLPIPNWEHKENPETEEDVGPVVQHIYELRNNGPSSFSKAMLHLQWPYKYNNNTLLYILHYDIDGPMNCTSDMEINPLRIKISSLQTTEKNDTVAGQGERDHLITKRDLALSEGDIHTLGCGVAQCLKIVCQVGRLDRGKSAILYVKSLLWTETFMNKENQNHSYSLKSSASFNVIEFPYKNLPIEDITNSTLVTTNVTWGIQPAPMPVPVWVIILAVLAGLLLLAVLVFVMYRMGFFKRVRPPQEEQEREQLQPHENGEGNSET
T1 chain 2: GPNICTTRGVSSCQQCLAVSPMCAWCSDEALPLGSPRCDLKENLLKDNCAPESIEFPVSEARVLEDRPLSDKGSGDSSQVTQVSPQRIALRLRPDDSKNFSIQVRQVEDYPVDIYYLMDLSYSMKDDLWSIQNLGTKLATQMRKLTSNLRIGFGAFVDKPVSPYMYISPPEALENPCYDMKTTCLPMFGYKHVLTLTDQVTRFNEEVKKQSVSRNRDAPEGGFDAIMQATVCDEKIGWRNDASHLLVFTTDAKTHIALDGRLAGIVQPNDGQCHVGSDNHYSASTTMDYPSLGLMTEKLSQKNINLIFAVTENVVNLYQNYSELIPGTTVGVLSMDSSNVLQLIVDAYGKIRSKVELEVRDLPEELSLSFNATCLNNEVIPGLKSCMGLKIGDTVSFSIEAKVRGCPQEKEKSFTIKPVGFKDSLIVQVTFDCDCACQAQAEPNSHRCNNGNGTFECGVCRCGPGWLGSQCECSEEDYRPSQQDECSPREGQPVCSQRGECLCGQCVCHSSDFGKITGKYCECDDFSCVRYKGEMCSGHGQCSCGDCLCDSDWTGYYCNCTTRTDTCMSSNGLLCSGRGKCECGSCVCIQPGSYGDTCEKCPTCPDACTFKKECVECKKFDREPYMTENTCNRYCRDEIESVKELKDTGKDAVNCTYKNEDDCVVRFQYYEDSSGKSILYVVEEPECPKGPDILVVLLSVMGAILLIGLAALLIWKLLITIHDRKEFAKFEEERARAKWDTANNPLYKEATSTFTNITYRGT

[2] = biological target: T2, αVβ3(N339/S) on HEK293T cells (human, UniProt P06756 31-1048; P05106 27-788); experiment: flow cytometry, fluoresceinated fluid-phase FN10 on transfected HEK293T cells, Ca2+/Mg2+
T2 construct: also called αVβ3^N/S; active αVβ3(N339/S)
T2 chain 1: T1 chain 1
T2 chain 2: T1 chain 2 with N339S

[3] = biological target: T2, αVβ3(N339/S) on HEK293T cells; experiment: flow cytometry, fluorescein-tagged hFN10-G on cells

- fold increase of binding (Mn2+ over Ca2+/Mg2+) [1]: 10 fold
- fold increase of binding (N339/S over wild-type αVβ3) [2]: 6 fold
B1: wild-type 10th type-III RGD-domain of human fibronectin (wtFN10) (ligand)
chain: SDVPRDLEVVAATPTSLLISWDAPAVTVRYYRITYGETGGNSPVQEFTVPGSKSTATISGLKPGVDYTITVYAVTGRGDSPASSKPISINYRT
notes: Expressed in bacteria with an N-terminal His tag (S1417-T1509) and a thrombin cleavage site; also called wild-type FN10

- binding result [3]: no binding
B2: hFN10-G (designed binder)
chain: SDVPRDLEVVAATPTSLLISWDAPAVTVRYYRITYGETGGNSPVQEFTVPGSKSTATISGLKPGVDYTITVYAVTPGRGDWNEGSKPISINY
notes: Fluorescein-tagged in the assay; also called mhFN10
